Measurements published in patent US20250277029A1 (Amgen, published 2025).
Residue numbers refer to the chain shown, from its start.

Legend:
[1] = target: T1, human cannabinoid receptor 1 (huCB1), full length, expressed on cells (human, UniProt P21554 1-472); assay: cell-based or functional assay
huCB1 nanodisc (CB1-ND) = target: T2, huCB1 nanodisc (CB1-ND) (human, UniProt P21554 99-414); assay: Octet BLI; antibody captured by anti-human Fc, CB1-nanodisc in solution, 1:1 model
T2 construct: The His-tagged CB1 is embedded in a POPC lipid nanodisc with MSP1D1 scaffold protein (molar ratio 480:8:1); also called huCB1-ND; #CB1-008

[2] = target: T1, human cannabinoid receptor 1 (huCB1), …; assay: cell-based or functional assay; remark: listed apart in the source
[3] = target: T1, human cannabinoid receptor 1 (huCB1), …; assay: cell-based or functional assay; remark: listed apart in the source
[4] = target: T1, human cannabinoid receptor 1 (huCB1), …; assay: KinExA on-cell ranking, HEK 293T cells expressing full length CB1; %IFF of LIBC523661 divided by %IFF of antibody
[5] = target: T3, human cannabinoid receptor type 2 (CB2) (human, UniProt P34972 1-360); assay: binding to huCB2, fold over mock (method not described)
T3 construct: also called huCB2; full length hu CB2

[6] = target: T4, His-tagged huCB1-ND (human CB1 in nanodisc) (human); assay: flow cytometry, yeast-displayed IgG, huCB1-ND over empty-ND
T4 construct: CB1 construct of Cell 167(3) (2016) 750-762 expressed in Sf9 cells; POPC:MSP1D1:CB1 480:8:1; also called CB1-nanodisc; huCB1-Nanodisc; not shown: histidine purification tag

[7] = target: T5, GFP-fused huCB1-SMALP (human CB1 in styrene maleic acid lipoparticles) (human, UniProt P21554 1-472); assay: flow cytometry on IgG-displaying yeast, 100 nM GFP-fused huCB1-SMALP, GFP in BB515-A (y) vs AlexaFluor647 anti-huFab display in APC-A (x)
T5 construct: Prepared as in Luna V. et al. 2018; also called huCB1-GFP-SMALP; wtCB1-SMALP; not shown: GFP fusion

[8] = target: T4, His-tagged huCB1-ND (human CB1 in …); assay: flow cytometry, yeast-displayed IgG, binding/display ratio
[9] = target: T5, GFP-fused huCB1-SMALP (human CB1 in …); assay: flow cytometry, yeast-displayed IgG, GFP MFI
mouse CB1 [10] = target: T6, mouse CB1 (mouse, UniProt P47746 1-473); assay: binding to muCB1, fold over mock (method not described)
T6 construct: also called muCB1; murine CB1

[11] = target: T3, human cannabinoid receptor type 2 (CB2); assay: fold over mock (Table 14)
mouse CB1 [12] = target: T6, mouse CB1; assay: fold over mock (Table 14)
[13] = target: T4, His-tagged huCB1-ND (human CB1 in …); assay: flow cytometry on IgG-displaying yeast, 0.2 nM His-tagged huCB1 nanodisc, APC anti-His (y) vs PE anti-huFc display (x)
[14] = target: T3, human cannabinoid receptor type 2 (CB2); assay: FACS on transfected HEK293T cells
mouse CB1 [15] = target: T6, mouse CB1; assay: FACS on transfected HEK293T cells
[16] = target: T7, mouse CB1, full length, expressed on cells (mouse, UniProt P47746 1-473); assay: FACS on transiently transfected HEK293T cells
T7 construct: Transiently expressed on HEK293T cells; also called Full length mu CB1; muCB1

[17] = target: T8, truncated human CB1 (devoid of the 1-98 aa N-term), expressed on cells (human, UniProt P21554 99-472); assay: FACS on transiently transfected HEK293T cells
T8 construct: Transiently expressed on HEK293T cells; also called Truncated hu CB1; N-term truncated human CB1

[18] = target: T9, human cannabinoid receptor type 2 (CB2), full length, expressed on cells (human, UniProt P34972 1-360); assay: FACS on transiently transfected HEK293T cells
T9 construct: Transiently expressed on HEK293T cells; also called Full length hu CB2; huCB2

[19] = target: T1, human cannabinoid receptor 1 (huCB1), …; assay: FACS on transiently transfected HEK293T cells
[20] = target: T1, human cannabinoid receptor 1 (huCB1), …; assay: cell-based or functional assay; remark: listed apart in the source
[21] = target: T4, His-tagged huCB1-ND (human CB1 in …); assay: flow cytometry, yeast-displayed IgG, binding/display ratio; remark: listed apart in the source
[22] = target: T10, empty-ND (nanodisc without CB1); assay: as above
T10 construct: its only protein is the nanodisc scaffold; also called Empty Nanodisc

[23] = target: T5, GFP-fused huCB1-SMALP (human CB1 in …); assay: flow cytometry, yeast-displayed IgG, GFP MFI; remark: listed apart in the source

T6 sequence (P47746 whole entry): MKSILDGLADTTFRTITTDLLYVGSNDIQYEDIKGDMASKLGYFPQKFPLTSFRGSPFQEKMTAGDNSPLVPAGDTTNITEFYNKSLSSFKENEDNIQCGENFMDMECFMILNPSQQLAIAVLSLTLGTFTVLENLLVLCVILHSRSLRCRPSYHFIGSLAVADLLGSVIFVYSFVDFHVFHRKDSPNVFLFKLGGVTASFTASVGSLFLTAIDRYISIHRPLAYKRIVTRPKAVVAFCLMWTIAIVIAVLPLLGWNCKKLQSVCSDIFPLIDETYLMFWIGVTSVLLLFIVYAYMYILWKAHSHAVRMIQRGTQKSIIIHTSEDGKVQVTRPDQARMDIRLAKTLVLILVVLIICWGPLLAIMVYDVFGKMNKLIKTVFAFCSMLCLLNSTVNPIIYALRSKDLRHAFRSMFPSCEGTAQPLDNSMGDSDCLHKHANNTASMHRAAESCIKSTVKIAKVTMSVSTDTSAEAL
T7 sequence (P47746 whole entry): as above
T8 sequence (P21554 99-472): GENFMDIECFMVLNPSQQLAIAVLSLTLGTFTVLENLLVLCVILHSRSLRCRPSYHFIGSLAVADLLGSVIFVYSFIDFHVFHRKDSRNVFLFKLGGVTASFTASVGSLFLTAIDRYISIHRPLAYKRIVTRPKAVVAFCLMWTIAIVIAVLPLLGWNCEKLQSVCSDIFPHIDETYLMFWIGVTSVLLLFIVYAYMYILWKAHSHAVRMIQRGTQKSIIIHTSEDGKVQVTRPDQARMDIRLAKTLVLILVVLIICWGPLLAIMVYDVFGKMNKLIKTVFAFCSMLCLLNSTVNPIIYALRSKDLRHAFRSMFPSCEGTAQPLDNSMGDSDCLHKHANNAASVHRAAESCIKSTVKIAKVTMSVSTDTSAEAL
T3 sequence (P34972 whole entry): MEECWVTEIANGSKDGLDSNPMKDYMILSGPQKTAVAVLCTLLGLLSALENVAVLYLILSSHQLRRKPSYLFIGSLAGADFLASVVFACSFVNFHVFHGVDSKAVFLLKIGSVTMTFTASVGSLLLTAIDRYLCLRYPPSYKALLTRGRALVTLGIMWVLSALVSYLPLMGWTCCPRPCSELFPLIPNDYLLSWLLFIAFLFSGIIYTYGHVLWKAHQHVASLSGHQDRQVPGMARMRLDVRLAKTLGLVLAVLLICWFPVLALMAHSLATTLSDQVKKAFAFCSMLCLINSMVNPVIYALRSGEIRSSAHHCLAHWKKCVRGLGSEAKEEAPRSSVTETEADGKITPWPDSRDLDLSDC
T9 sequence (P34972 whole entry): as above
T4 sequence (P21554 99-414): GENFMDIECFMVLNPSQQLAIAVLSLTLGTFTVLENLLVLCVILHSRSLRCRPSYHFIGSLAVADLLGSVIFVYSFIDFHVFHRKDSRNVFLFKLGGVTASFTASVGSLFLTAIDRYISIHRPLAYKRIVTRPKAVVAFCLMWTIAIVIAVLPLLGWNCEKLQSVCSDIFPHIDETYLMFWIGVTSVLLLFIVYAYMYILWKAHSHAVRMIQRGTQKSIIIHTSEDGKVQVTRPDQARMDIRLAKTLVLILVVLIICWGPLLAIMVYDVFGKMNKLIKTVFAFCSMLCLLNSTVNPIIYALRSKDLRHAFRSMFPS
T2 sequence (P21554 99-414 limits assumed): as the sequence (P21554 99-414) above
T5 sequence (P21554 whole entry, the tested form may be a part): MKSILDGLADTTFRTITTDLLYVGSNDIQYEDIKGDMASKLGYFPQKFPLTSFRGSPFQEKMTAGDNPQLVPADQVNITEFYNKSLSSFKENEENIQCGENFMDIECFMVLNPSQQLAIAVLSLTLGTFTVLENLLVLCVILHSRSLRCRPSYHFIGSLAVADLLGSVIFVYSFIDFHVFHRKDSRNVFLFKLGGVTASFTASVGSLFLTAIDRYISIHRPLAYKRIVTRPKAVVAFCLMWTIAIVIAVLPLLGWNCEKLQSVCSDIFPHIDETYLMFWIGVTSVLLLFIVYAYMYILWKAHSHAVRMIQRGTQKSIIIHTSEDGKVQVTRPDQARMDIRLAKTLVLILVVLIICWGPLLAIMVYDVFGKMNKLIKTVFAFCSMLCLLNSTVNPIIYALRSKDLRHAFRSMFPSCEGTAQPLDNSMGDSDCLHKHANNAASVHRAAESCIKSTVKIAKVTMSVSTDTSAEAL
T1 sequence (P21554 whole entry): as the sequence (P21554 whole entry, the tested form may be a part) above

B1: LIBC524049-1 (antibody, V domains shown)
VH: QVQLQESGPGLVKPSQTLSLTCTVSGGSIRRGGDYWSWIRQHPGKGLEWIGHIYYTGSTAYNPSLKSRATISVNTYKNQFSLKLSSVTAADTAVYYCARDYDILTGYSYYYYGMDVWGQGTTVTVSS
VL: not shown
notes: Expressed as IgG1 SEFL2 mAb
Mean IC50 (nM, n = 3), cAMP antagonist assay [1]: 3.71 nM | Kd (huCB1 nanodisc (CB1-ND)): 15 nM | koff (huCB1 nanodisc (CB1-ND)): 0.000904 s⁻¹ | kon (huCB1 nanodisc (CB1-ND)): 59000 M⁻¹ s⁻¹ | IC50, nM (CP agonist) [2]: 3.7 nM | Mean IC50 (nM), cAMP antagonist assay [3]: 2.87 nM | Mean IC50, -fold vs Rimo [3]: 0.96 fold vs Rimonabant | n = 1 IC50 (nM), cAMP antagonist assay [3]: 4.41 nM | n = 1 IC50, -fold vs Rimo [3]: 1.05 fold vs Rimonabant | n = 2 IC50 (nM), cAMP antagonist assay [3]: 1.34 nM | n = 2 IC50, -fold vs Rimo [3]: 0.75 fold vs Rimonabant | Relative binding (KinExA, on cell; vs LIBC523661 mAb) [4]: 1.5 ratio

B2: LIBC524049-1 (antibody, IgG1, V domains shown)
VH: B1 VH
VL: not shown
Fold over mock [5]: 1 fold | specific huCB1 binding (CB1 ND/Empty ND ratio) [6]: 9.5 ratio | % of events in the upper right quadrant (display-positive, binding-positive) [7]: 24.8% | relative binding to 0.2 nM huCB1-ND (relative to 10D10N35Y) [8]: 5.01 fold | 100 nM huCB1-SMALP binding (normalized to 10D10) [9]: 5.51 fold | Fold over mock (mouse CB1 [10]): 0.8 fold | binding result [11]: no binding | binding result (mouse CB1 [12]): no binding | % of events in the upper right quadrant (display-positive, binding-positive) [13]: 39.9%

B3: LIBC527919-1 (antibody, V domains shown)
VH: B1 VH with S37A, I53V, Y55Q, S64N, L65F, S67D, D100N, I103A, T105S
VL: DIQLTQSPSSLSASVGDRVTITCRASQSIISYLNWYQQKPGKAPKLLIYAASSLRSGVPSRFSGSGSGTDFTLTISSLQPEDFATYYCQQYSNYPLTFGGGTRVEIKR
notes: Expressed as IgG1 SEFL2 mAb
Mean IC50 (nM, n = 3), cAMP antagonist assay [1]: 3.01 nM | Kd (huCB1 nanodisc (CB1-ND)): 60 nM | koff (huCB1 nanodisc (CB1-ND)): 0.00339 s⁻¹ | kon (huCB1 nanodisc (CB1-ND)): 56200 M⁻¹ s⁻¹ | IC50, nM (CP agonist) [2]: 3 nM | Mean IC50 (nM), cAMP antagonist assay [3]: 3.44 nM | Mean IC50, -fold vs Rimo [3]: 1.15 fold vs Rimonabant | n = 1 IC50 (nM), cAMP antagonist assay [3]: 5.09 nM | n = 1 IC50, -fold vs Rimo [3]: 1.21 fold vs Rimonabant | n = 2 IC50 (nM), cAMP antagonist assay [3]: 1.8 nM | n = 2 IC50, -fold vs Rimo [3]: 1 fold vs Rimonabant | Relative binding (KinExA, on cell; vs LIBC523661 mAb) [4]: 2.9 ratio

B4: LIBC529593-1 (antibody, V domains shown)
VH: B1 VH with T56S, A60N, K66R, A69V, T70R, N74D, Y76S, M114L
VL: not shown
binding result [14]: no binding | binding result (mouse CB1 [15]): no binding

B5: LIBC527997-1 (antibody, V domains shown)
VH: B1 VH with S37A, Y55Q, A60N, S64R, L65F, S67G, D100N, I103T
VL: B3 VL with L4M, I30S, S31N, R55H, T85S, S92Q, N93S, G100Q, R103K
notes: Expressed as IgG1 SEFL2 mAb
Mean IC50 (nM, n = 3), cAMP antagonist assay [1]: 2.54 nM | Kd (huCB1 nanodisc (CB1-ND)): 26 nM | koff (huCB1 nanodisc (CB1-ND)): 0.00136 s⁻¹ | kon (huCB1 nanodisc (CB1-ND)): 51800 M⁻¹ s⁻¹ | IC50, nM (CP agonist) [2]: 2.5 nM | Mean IC50 (nM), cAMP antagonist assay [3]: 2.97 nM | Mean IC50, -fold vs Rimo [3]: 0.99 fold vs Rimonabant | n = 1 IC50 (nM), cAMP antagonist assay [3]: 4.37 nM | n = 1 IC50, -fold vs Rimo [3]: 1.04 fold vs Rimonabant | n = 2 IC50 (nM), cAMP antagonist assay [3]: 1.57 nM | n = 2 IC50, -fold vs Rimo [3]: 0.88 fold vs Rimonabant | Relative binding (KinExA, on cell; vs LIBC523661 mAb) [4]: 2.1 ratio

B6: LIBC529593-1 (antibody, V domains shown)
VH: B1 VH with T56S, A60N, K66R, A69V, T70R, N74D, Y76S, M114L
VL: not shown
notes: Fully human antibody from the new XenoMouse campaign
MFI ratio (target- vs mock-transfected cells) [16]: 1 ratio | MFI ratio (target- vs mock-transfected cells) [17]: 495 ratio | MFI ratio (target- vs mock-transfected cells) [18]: 1.1 ratio | MFI ratio (target- vs mock-transfected cells) [19]: 422 ratio | IC50, nM (TR-FRET cAMP assay, CP55,940 and Forskolin) [20]: 6.4 nM

B7: LIBC527814-1 (antibody, IgG1, V domains shown)
VH: B1 VH with S37G, I53V, Y55Q, A60K, L65F, S67D, D100N, I103T
VL: B3 VL with L4M, S10T, I30S, S31N, R55H, T85S, S92Q, N93S, G100Q, R103K
Fold over mock [5]: 0.9 fold | 0.200 nM huCB1-Nanodisc binding (relative to 10D10N35Y) [21]: 6.49 fold | 50.0 nM Empty Nanodisc binding (relative to 10D10N35Y) [22]: 0.61 fold | 100 nM huCB1-GFP-SMALP binding (normalized to 10D10N35Y) [23]: 6.44 fold | Fold over mock (mouse CB1 [10]): 1.2 fold | binding result [11]: no binding | binding result (mouse CB1 [12]): no binding

B8: LIBC527919-1 (antibody, IgG1, V domains shown)
VH: B1 VH with S37A, I53V, Y55Q, S64N, L65F, S67D, D100N, I103A, T105S
VL: B3 VL
Fold over mock [5]: 0.9 fold | 0.200 nM huCB1-Nanodisc binding (relative to 10D10N35Y) [21]: 5.22 fold | 50.0 nM Empty Nanodisc binding (relative to 10D10N35Y) [22]: 0.64 fold | 100 nM huCB1-GFP-SMALP binding (normalized to 10D10N35Y) [23]: 4.15 fold | Fold over mock (mouse CB1 [10]): 1 fold | binding result [11]: no binding | binding result (mouse CB1 [12]): no binding

B9: LIBC523969-1 (antibody, V domains shown)
VH: B1 VH with Y55Q, S58Q, A60K, S64N, S67G
VL: DIVMTQSPLSLPVTPGEPASISCRSSQSLLSSTGANYLDWYLQKPGQSPQLLIYQGSNRASGVPDRFSGSGSGTDFTLKISRVEAEDVGVYYCRQAVGLPRTFGQGTKVEIKR
specific huCB1 binding (CB1 ND/Empty ND ratio) [6]: 12.8 ratio | % of events in the upper right quadrant (display-positive, binding-positive) [7]: 27.2% | relative binding to 0.2 nM huCB1-ND (relative to 10D10N35Y) [8]: 4.53 fold | 100 nM huCB1-SMALP binding (normalized to 10D10) [9]: 5.69 fold | % of events in the upper right quadrant (display-positive, binding-positive) [13]: 46.8%

B10: 10D10 (antibody, V domains shown)
VH: B1 VH with H52Y, T56S, A60N, N74D, Y76S
VL: not shown
notes: also called 10D10 antibody; 10D10 parent
% of events in the upper right quadrant (display-positive, binding-positive) [7]: 1.48% | binding result [11]: no binding | binding result (mouse CB1 [12]): no binding | % of events in the upper right quadrant (display-positive, binding-positive) [13]: 0.431%

B11: LIBC560340-1 (antibody, V domains shown)
VH: QVQLQESGPGLVKPSQTLSLICIVSGGSIRRGGDYWNWIRQHPGKGLEWIGHIYYSGSKNYNPSLKSRVTISVDTSKNQFSLKLSSVTAADTAVYYCARGYDSSGYSYYYYGMDVWGQGTTVTVSS
VL: B9 VL with S31Y, T33N, A35H, Y37F, Q55L, R94M, V97L, G98Q, L99T, Q105G
notes: as for B6
MFI ratio (target- vs mock-transfected cells) [16]: 1 ratio | MFI ratio (target- vs mock-transfected cells) [17]: 705 ratio | MFI ratio (target- vs mock-transfected cells) [18]: 1 ratio | MFI ratio (target- vs mock-transfected cells) [19]: 578 ratio | IC50, nM (TR-FRET cAMP assay, CP55,940 and Forskolin) [20]: 10.2 nM

B12: LIBC560657-1 (antibody, V domains shown)
VH: B11 VH with Q5R, S56T, S58T, N60Y
VL: DIVMTQSPLSLPVTPGEPASISCRSSQSLLYSNGHNYLDWYLQKPGQSPQLLIYLGSNRAPGVPDRFSGSGSGTDFTLKISRVEAEDVGVYFCMQALQTPRTFGGGTKVEIKR
notes: as for B6
MFI ratio (target- vs mock-transfected cells) [16]: 1 ratio | MFI ratio (target- vs mock-transfected cells) [17]: 444 ratio | MFI ratio (target- vs mock-transfected cells) [18]: 1 ratio | MFI ratio (target- vs mock-transfected cells) [19]: 440 ratio | IC50, nM (TR-FRET cAMP assay, CP55,940 and Forskolin) [20]: 7.5 nM
